Reference: publication PMC6497721, “DNA methylation repels targeting of Arabidopsis REF6”

Tests used:
REF6 ZnF1-4 = target: T1, REF6 ZnF1-4 (Arabidopsis thaliana, UniProt Q9STM3 1239-1360); test: ITC; 20 uM ZnCl2; ITC: 20 mM Tris-HCl pH 7.5, 150 mM NaCl, 20 uM ZnCl2, 25 C; EMSA: 25 mM Tris-HCl pH 8.0, 100 mM NaCl, 2.5 mM MgCl2, 0.1% CA-630, 10% glycerol, 1 uM ZnSO4, 1 mM; details: protein: recombinant; tags: GST removed by PreScission; blunt
T1 sequence: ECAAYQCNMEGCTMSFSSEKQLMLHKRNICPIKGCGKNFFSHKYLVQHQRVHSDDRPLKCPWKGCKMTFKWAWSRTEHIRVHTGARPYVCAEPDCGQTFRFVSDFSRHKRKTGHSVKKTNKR

GST-REF6C (ZnF1-4) = target: T2, GST-REF6C (ZnF1-4) (Arabidopsis thaliana, UniProt Q9STM3 1239-1360); test: EMSA; 1 uM ZnSO4; ITC: 20 mM Tris-HCl pH 7.5, 150 mM NaCl, 20 uM ZnCl2, 25 C; EMSA: 25 mM Tris-HCl pH 8.0, 100 mM NaCl, 2.5 mM MgCl2, 0.1% CA-630, 10% glycerol, 1 uM ZnSO4, 1 mM; details: protein: recombinant; tags: N-terminal GST (pGEX-6P-1); label: 5'-32P; blunt
T2 sequence: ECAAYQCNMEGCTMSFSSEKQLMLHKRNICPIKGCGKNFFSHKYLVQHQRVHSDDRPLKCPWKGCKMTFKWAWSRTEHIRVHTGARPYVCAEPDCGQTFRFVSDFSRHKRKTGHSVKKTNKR

Binder | Kd (REF6 ZnF1-4) [nM] | binding result (GST-REF6C (ZnF1-4))
NAC004P_5mC1 (dsDNA, 5mC at top strand position 3) DNA 1: TTCTCTGTTTTG DNA 2: CAAAACAGAGAA | 65.7 ± 4.9 | –
NAC004P 12-mer (dsDNA) DNA 1: TTCTCTGTTTTG DNA 2: CAAAACAGAGAA | 73.5 ± 7 | –
NAC004P_5mC3 (dsDNA, 5mC at top strand position 5) DNA 1: TTCTCTGTTTTG DNA 2: CAAAACAGAGAA | 110 ± 3.8 | –
NAC004 50-bp probe (dsDNA) DNA 1: GGGAGAATCTCAAACTTTCTCTGTTTTGTCTTTAGAAACTTTGAAATATC DNA 2: GATATTTCAAAGTTTCTAAAGACAAAACAGAGAAAGTTTGAGATTCTCCC | – | binds
